In the supplement of paper PMC12764529:
± gives the half width of the 95% confidence interval.

Key:
[1] = folding stability dG unfold from trypsin proteolysis; higher = more stable
Method in brief: (§1)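 How resistant each design was to proteolysis was captured as K50, inferred by Bayesian fitting of sequencing counts. Unfolding free energy was then derived relative to a sequence-predicted unfolded-state K50 and a shared folded-state K50, per protease or combined. Digestion used trypsin and chymotrypsin at 11 threefold-diluted concentrations plus a no-protease condition, on mini-proteins under 80 residues without cysteine in a PA-tagged cDNA display construct. Designs were kept only when AlphaFold2 dimer inter-PAE was above 15.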

[2] = folding stability dG unfold from chymotrypsin proteolysis; higher = more stable
Method in brief: as §1

[3] = folding stability dG unfold (combined trypsin and chymotrypsin); higher = more stable
Method in brief: as §1

| Sequence | folding stability dG unfold [1] [kcal/mol] | folding stability dG unfold [2] [kcal/mol] | folding stability dG unfold [3] [kcal/mol] |
| --- | --- | --- | --- |
| SAPPETVEVEEVAEFELADGSKVTVAKVKLPNGETLVVVTVYNKDGEPVATFVVREGDPDALAEALKALSSA [r9_1069_TrROS_Hall] | 3.9 ± 0.3 | 4.56 ± 0.095 | 4.51 ± 0.13 |
| SAGGSAGGSAGGSFKIKDIEVNPDALKKGNFIQIRIENGWVIHINPNGEIEVVELPPDASAGGSAGGSAGGS [r4_373_TrROS] | 0.356 ± 0.083 | 1.59 ± 0.072 | 1.25 ± 0.095 |
| SAGGSAGGSAGGMFVRIEVDGKTILLEADSLEEALAAIRALLPPGEKVKVELVSEEELKSAGGSAGGSAGGS [r10_1167_TrROS_Hall] | 2.44 ± 0.084 | 3.04 ± 0.068 | 2.85 ± 0.047 |
| SAKKITLTPPNGKKITITVHPDGSITITYEKGKITLPGHPGAKIKKATVDPKKGYITIIVNDKPIVIPISAG [r14_276_TrMRF] | 1.66 ± 0.044 | 2.83 ± 0.071 | 2.39 ± 0.12 |
| SAGGSAGGSAGGMYITFDFEVPPNNPEVIEELKSKGIEYKKIEPKPDKVKVKVIIPEKLLSAGGSAGGSAGG [r7_41_JUSTAS] | -0.638 ± 0.3 | -0.12 ± 0.27 | -0.38 ± 0.27 |
| SAGGSAGGSISQIKSKIKKILEEKGLKPTKIVIKKTEKLKNKIKVEVEVEIGKGPKISMIIEIESAGGSAGG [r6_841_JUSTAS] | 3.89 ± 0.21 | 2.43 ± 0.16 | 3.19 ± 0.22 |
| SAGGSAGGMVIKLPLPNDLYAEIPVYSNSDGIVTARIVLYDPSTEEKVEKPFELPFEELLDLLSSAGGSAGG [r6_858_TrMRF] | 0.328 ± 0.027 | 0.899 ± 0.054 | 0.712 ± 0.081 |
| SAGGSAGGSAGGMSSTVSLSTSFLPNGEKVVTTTTTFTDSSTTTTTTTTTTVALPPPSVVSAGGSAGGSAGG [r7_495_JUSTAS] | 1.14 ± 0.075 | 0.984 ± 0.093 | 1.23 ± 0.14 |
| SASLEPVATTAVPLPDGTTATLTLYRDPATGRYTVRVTVTHPDGAAETRVLEVDSEEEALSRVVLSPGASAG [r14_749_JUSTAS] | 2.38 ± 0.049 | 3.421 ± 0.018 | 3.12 ± 0.075 |
| SFRIMASYDPDYGTITVYVQFQDPDNGEPIPAEEIAKEIAEQFPGAKIDDIEPNPDGWFKIEIKVPPGAFSA [r9_87_TrROS] | 2.19 ± 0.077 | 2.55 ± 0.044 | 2.46 ± 0.19 |
| SAGGSAGGSAMKIEIEVDPKTNVIYIRVNGLVYRFTKSEDGYIYIEVYDKNGKLIETFRLKLSAGGSAGGSA [r18_333_TrROS_Hall] | 3.52 ± 0.13 | 4.83 ± 0.1 | 4.4 ± 0.18 |
| SAGGSAGGSAGMIDIKFEKIEGSSEYRATLTRPGGEVVPVLFSSSESAEEAKERAIELLESAGGSAGGSAGG [r17_161_JUSTAS] | 0.906 ± 0.06 | 1.28 ± 0.11 | 1.15 ± 0.12 |
| SAGGSAGGSAGMTYVYPGPDGKEYLAEVDPNIPGAEVTVTPPDTGETVTVPLSQVTEVPPSAGGSAGGSAGG [r11_822_JUSTAS] | 0.56 ± 0.05 | -0.449 ± 0.18 | 0.222 ± 0.063 |
| SAGGSAGGSAGGMTIVIVVPAENLTPEEIAELLREAGYEVTVERREDGYLVVTVRLPEPSAGGSAGGSAGGS [r10_1254_TrROS_Hall] | 3.5 ± 0.083 | 3.08 ± 0.052 | 3.43 ± 0.048 |
| SAGGSAKEVKIKFTRNPDGTLTMEITFEDGYVIRKTFTVKNGKLTEKVEVFPVKLDPETGKLVLLPSAGGSA [r15_746_TrROS_Hall] | 2.52 ± 0.078 | 2.98 ± 0.033 | 2.84 ± 0.087 |
| SAGGMTITIPVTESGSLEEALALAERVAEEARAAGLEEVTITVTVYDPANGEVLYTKTRRVPVRPEASAGGS [r8_33_JUSTAS] | 2.03 ± 0.032 | 2.274 ± 0.0077 | 2.21 ± 0.031 |
| EMTEEELREKLPELSPEELEELARKLAEELGIEEVEEVEVVSVKPDGTIEVKVKLKDGEELTIEIPLEELLS [r1_435_TrROS_Hall] | 2.8 ± 0.26 | 2.07 ± 0.15 | 2.47 ± 0.22 |
| SAGGSEIRVEYDPSTGELRVLIVLPDGSVILKTVRVEPIDPGIAPDGSPIGAAVSISVEIVPPGELSAGGSA [r2_195_TrMRF] | 3.23 ± 0.1 | 3.5 ± 0.037 | 3.39 ± 0.087 |
| SAGGSAEEELLKAIKEALEKAKEGETVELEITLEDGSTLRITFDAENGKITVTLPNGEKLELTIEPSAGGSA [r15_977_TrROS_Hall] | 3.18 ± 0.19 | 4.37 ± 0.18 | 4.23 ± 0.16 |
| SAGGSAGGSDLVRVEMLITKIVPGTGDPVETVKIEVEVPRSEIPKVIEEIPEGYEVTEIKFIPESAGGSAGG [r6_777_JUSTAS] | 2.05 ± 0.079 | 1.18 ± 0.062 | 1.57 ± 0.11 |
| SMKFTITLSNPVDGTTETIPLDVPLEELVKIIKEAHEKGGTVTITGLPEELAKEIAEKSGLDVSINPAPGSA [r9_1207_JUSTAS] | 3.13 ± 0.14 | 2.57 ± 0.053 | 2.85 ± 0.14 |

| Sequence | folding stability dG unfold [1] [kcal/mol] | folding stability dG unfold [2] [kcal/mol] | folding stability dG unfold [3] [kcal/mol] |
| --- | --- | --- | --- |
| SAGGSAGGSAGGLAPAPDGSPVAVLLDDGRVVVFDPETAELYVAFVTPDSVRVVPLPLDLSAGGSAGGSAGG [r7_527_TrMRF] | -0.565 ± 0.071 | 0.656 ± 0.038 | 0.332 ± 0.053 |
| SAGGSAGDKVVTVTATFTTTDPNGNEITIIAPITFLNGEGTAVIDAKAFNPTGELIAEATITVPIGSAGGSA [r15_967_TrMRF] | 1.69 ± 0.057 | 2.34 ± 0.028 | 2.07 ± 0.087 |
| SAGSKEEKAKEIAKKLAEELKKKFPDLKIVEVKVVKIEYNKENKEIKITIYVYNKNGKLIKKIEITLPSAGG [r19_53_TrROS_Hall] | 3.58 ± 0.2 | 4.63 ± 0.11 | 4.38 ± 0.18 |
| SAGGMTASSTTLPPSGITSQTTTDPATGVTTTTTRYPDGTVTTTTTTALPPPAAATTTTTTALPGSAAASAG [r5_766_JUSTAS] | 1.93 ± 0.12 | 1.68 ± 0.07 | 1.77 ± 0.086 |
| SAGGSAGGSAGKTVQIWIPPDEITPEALKSLAREGWKIKPIEIRRNPEDGWISITIELKPSAGGSAGGSAGG [r11_345_TrROS] | 0.597 ± 0.076 | 0.451 ± 0.36 | 0.619 ± 0.25 |
| SAGGSAGGSKVLIIEPEENKELAEKIAKELKEKGELGEVEIKTFSSPEEAKEYAKNYDIVITGSAGGSAGGS [r12_679_TrMRF] | -0.0715 ± 0.22 | 0.528 ± 0.17 | 0.302 ± 0.14 |
| SIEVEKTPDGKFEIENDNGWKVEIEVFPGMIEIKIKPVKVYVPDGKWFETPEEAEKMQEKNGVPITEDDLSA [r9_660_TrROS] | 0.615 ± 0.12 | 1.08 ± 0.071 | 0.743 ± 0.19 |
| SAGMKEIKIKDAKIEVKKKKDGKKVKRITLKDGKEIEIKEDGSIIIRNKKTGKYIKLPKNMTIEELLKKSAG [r5_348_TrROS_Hall] | 0.925 ± 0.09 | 1.74 ± 0.029 | 1.48 ± 0.098 |
| SAMIEIEAVFPPNVSLEEAVEAVKAEIESKGFEILEVKVEKLPNGEVLVRAVVKVKPEMPPEEIKKLAESAG [r14_110_TrMRF] | 1.5 ± 0.06 | 2.44 ± 0.2 | 2.07 ± 0.19 |
| SAGGSAGGSAGKVIKLEELKKKFPNMSPEELAAFFKKLGYKVEVVKVGDVPYVFLSPGEKSAGGSAGGSAGG [r11_707_TrMRF] | 2.2 ± 0.065 | 3.676 ± 0.02 | 3.33 ± 0.049 |
| SAGGSAGGSAGMVTIYADPDGSYTAHFPDGSSASYSSLEEVKANLKAKYPDVKDVVIEKTSAGGSAGGSAGG [r11_806_JUSTAS] | 2.17 ± 0.088 | 3.449 ± 0.034 | 3.11 ± 0.084 |
| SAGGSAGGSAGMIVIKNPETKEYYVIKFDGKEYVIELSEDELKELLEKLKGKDVEIKKLPSAGGSAGGSAGG [r11_57_TrROS_Hall] | 2.01 ± 0.16 | 1.93 ± 0.048 | 1.96 ± 0.2 |
| SAGGSAGGSAGKPIIKVKIIEKKDGYLKIEIEDEKTGETKTITLKPGQKLEIKLELVKEPSAGGSAGGSAGG [r11_738_TrROS_Hall] | 1.92 ± 0.15 | 1.33 ± 0.064 | 1.62 ± 0.11 |
| SAGGSAGGSAGGMKITLTVPSEEEIEALTPPDAKITEIKKIGKDPVKGLPYYEVVLDPSSAGGSAGGSAGGS [r10_256_JUSTAS] | -1.42 ± 0.44 | 0.411 ± 0.033 | 0.0912 ± 0.14 |
| SAMTVEIEFPPELEVEELVEKLKEAFPGEEIEVEAERDPVEPRLRIRVTVDDPELAEEVEKKLRELVEESAG [r14_443_TrMRF] | 3.34 ± 0.15 | 2.21 ± 0.1 | 3 ± 0.12 |
| SAMVVPVKVELEIRVPGTPEEALEIAEELAKAFESLGNVEVDLELIEKSEDGSYIIKLTVTNYLPPELFSAG [r14_413_TrMRF] | 0.905 ± 0.1 | 1.99 ± 0.11 | 1.53 ± 0.21 |
| SAGMTQTLEVSGPSVKVTLTVAPDGSVTITTTDPNGNTTTTSLYVPPGVPVTIPLPFGGTTITATVTPASAG [r5_237_JUSTAS] | 2.38 ± 0.087 | 2.11 ± 0.071 | 2.36 ± 0.09 |
| SSSSEVKVERYPDSYLVTITIREGDKEVGTLSYPLNGSLTVEEVLEEVQKRYPDLPVSFSTSVPVPPPAPSA [r9_364_JUSTAS] | 3.46 ± 0.11 | 3.88 ± 0.073 | 3.8 ± 0.13 |
| SAGGIEVDPEHKHVHIHIPNGNIPELLDLIEDAPGDHVSIHFYNPGNGKPRRFTMPRKEARKFLEQFSAGGS [r16_797_TrROS] | 1.13 ± 0.033 | 0.834 ± 0.086 | 1.04 ± 0.044 |
| SAGGSMKITKIEIEKLPNGEYKITITKDENGNITVTVTNKNGKKKTITLKVKPEDVEEVLKELLKKSAGGSA [r2_298_TrROS_Hall] | 1.6 ± 0.051 | 3.01 ± 0.06 | 2.73 ± 0.1 |
| SAGGMPAKAVTTKLPDGTDRITVTTVGSGKSATIPVPAGELKVIEIEEGEETLSVSFVEVGPDNPELGSAGG [r13_122_TrMRF] | -0.426 ± 0.044 | 0.374 ± 0.014 | 0.104 ± 0.056 |
